According to the Human Domainome abundance scans (Beltran et al. 2025):

B1: Transcription intermediary factor 1-beta, residues 620 to 671; numbered along this chain, Q13263 (parent)
chain: TLDDSATICRVCQKPGDLVMCNQCEFCFHLDCHLPALQDVPGEEWSCSLCHV
B2: Zinc finger MYM-type protein 2, residues 463 to 506; numbered along this chain, Q9UBW7 (parent)
chain: IMNCCEQCGEYLPSKGAGNNVLVIDGQQKRFCCQSCVSEYKQVG

Variants of: B1
Test: abundance fitness (aPCA) (normalised: wild type 0, dead -1); higher = more abundant; growth selection in yeast, the domain comes from the species named
Details: Homo sapiens

Abundance fitness: each site, then its substitutions
D39: E 0.287, W -0.545, F -0.214, G -0.235, H -0.268, S -0.227, M -0.24, T -0.089, I -0.121, V 0.026, A -0.175, Y -0.206, K -0.272, Q -0.184, C -0.212, N -0.551, R -0.222
V52: C -0.289, G -0.32, I -0.354, Y -0.284, T -0.11, A 0.197, P 0.041, L -0.369, S 0.075, F -0.18, H -0.479, R 0.137, D -0.267
C50: V -0.513, Y -1.03, M -0.65, K -0.1, D -0.183, T -0.386, L -0.797, P 0.037, E -0.232, R -0.214, A -0.112, N -0.505, Q -0.329, G -0.278, F -0.315, S -0.462
S48: L -0.409, T -0.217, Y -0.094, M 0.386, Q -0.234, N -0.114, I -0.798, R 0.105, D -0.242, P 0.152, G -0.071, A -0.112, E -0.014, C -0.324, W 0.057, F -0.45, V -0.508, H 0.052
E43: N -0.089, D 0.088, C -0.129, L -0.085, S -0.007, H 0.062, A 0.035, W -0.2, V -0.165, Q -0.298, Y -0.486, I -0.092, P -0.032
G42: M -0.091, W -0.302, K 0.095, S -0.265, H 0.083, E -0.139, F -0.161, Q -0.028, P -0.085, V -0.107, L -0.086, R -0.074, C -0.222, A 0.014, T 0.174, Y -0.421
S46: Q 0.118, T -0.09, N 0.018, F -0.129, M 0.082, P -0.208, A 0.128, C -0.116, E 0.111, L -0.003, V 0.059, I -0.01, W -0.131, Y -0.245, R -0.101, H -0.113, K 0.155
H51: P 0.248, Q 0.148, E 0.107, F -0.452, V -0.023, L -0.063, I -0.264, N -0.528, G -0.302, C -0.281, R 0.081, S 0.109, D 0.041, Y -0.553, W -0.345, K -0.415, T 0.31, M 0.021
C47: M -0.794, R -0.552, W -0.951, L -0.864, I -1.05, H -0.572, Y -0.736, K -0.466, P -0.484, S -0.343, Q -0.636, D -0.456, N -0.382, T -0.565, E -0.295, G -0.33, V -0.807
Q38: Y -0.417, W -0.482, V -0.132
V40: Q -0.383, A -0.323, G -0.301, F 0.01, C -0.401, W -0.101, L -0.221, K -0.221, R 0.166, H -0.361, Y -0.121, P 0.264, D -0.02, N -0.218, M -0.213, S -0.121, I -0.401, E -0.403
W45: D -0.506, C -0.283, T -0.54, I -0.254, N -0.377, R -0.131, F -0.342, A 0.051, H -0.103, G -0.137, Y -0.202, V -0.236, Q -0.085, E -0.158, L -0.195, M -0.296
E44: Q -0.057, A -0.226, M -0.058, C 0.058, K -0.172, N -0.16, L -0.253, P -0.369, F -0.412, Y -0.143, V -0.217, I -0.35, T -0.164, S -0.07, R -0.08, G -0.042
P41: V -0.254, N -0.112, K -0.645, I -0.302, M -0.303, T -0.619, H -0.513, R -0.26, D -0.245, E -0.073, W -0.258, C -0.242, A -0.368, Q -0.204, S -0.374, G -0.202, F -0.439
L49: R 0.219, T 0.301, E 0.389, D 0.277, G 0.334, N 0.46, Q 0.263, S 0.303, Y 0.131, V -0.09, I -0.045, C -0.282, P 0.1, F 0.192, M 0, K 0.27, H 0.496, A 0.205, W 0.066

Variants of: B2
Test: as above
Details: Homo sapiens

Abundance fitness of substitutions, site by site:
Q7: K -0.135, H -0.076, E -0.26, A -0.09, G -0.137, D -0.466, L -0.226, C -0.034
C5: D -0.637, S -0.524, E -0.377, H -0.641, W -1.5, A -0.65, M -0.979, V -0.884, G -0.7, P -0.854, K -0.38, I -1.08, R -0.697, T -0.587, L -0.922
E6: N -0.241, H -0.256, Q -0.116, D 0.071, V -0.256, R -0.369, A -0.197, P -0.253, T -0.222, F -0.229, G -0.184, Y -0.267, K -0.231, W -0.375
I1: T -0.162, D 0.231, E -0.012, P -0.222, N 0.097, A -0.051, L -0.246, G -0.15, W -0.746, Y -0.402, F -0.307, S -0.172, V 0, R -0.255, M 0.169
M2: D -0.049, N -0.009, T -0.059, R -0.179, G -0.148, I -0.145, A -0.162, L -0.104, P -0.376, C -0.286, Q -0.141, H -0.25, W -0.687, K 0.124, S 0.073, E 0.118
N3: T -0.249, Q -0.232, I -0.237, F -0.035, E -0.036, P -0.345, S -0.141, W -0.402, V -0.366, H -0.154, G -0.119, A -0.09, C -0.215, D -0.045, K -0.231, M -0.194
C4: P -0.126, V -0.029, T -0.021, S 0.25, L -0.09, A -0.147, K 0.125, W -0.242, D -0.007, N 0.214, R 0.012, H 0.019, G -0.089, M -0.146, Q 0.142, Y -0.45
